The source of these data is patent publication US20220098328A1, “ANTIBODIES TO M(H)DM2/4 AND THEIR USE IN DIAGNOSING AND TREATING CANCER” (NomoCan Pharmaceuticals LLC, priority 2017, published 2022).

The test system of experiment [1] is OVCAR-3 cells. As to the kind of experiment: Flow cytometry on live (7AAD negative) cells. In kind it is cell-based, human. Here is the method:
Cells that had been allowed to grow to about 80% confluency in 75 cm^2 tissue culture flasks were released with either EDTA (10 mmols; pH 7.2; 5 min, 37° C.) or Trypsin (Gibco TrypLE Express), washed several times with ice-cold PBS, and blocked for 20 minutes on ice with 5% human serum albumin in PBS (intact, non-permeabilized cells). After establishing viability, the cell number was adjusted to 10^6 cells/ml and kept in ice-cold PBS until staining. Cells were then incubated with primary antibodies NMC-H103 (VH4/VK3) or NMC-C303 (1 μg/ml) for 30 minutes on ice. Following primary antibody incubation, cells were washed 3 times with ice-cold PBS, followed by incubation with goat anti-human PE labeled secondary antibody (Life technologies H10104) on ice for 20 minutes. Cells were then washed 3 times with PBS and incubated with 7AAD (5 μl/[…] of buffer) before flow cytometry analysis using Fortessa 5.

Experiment [2] relates to HeLa cervical cancer cells. As to the kind of experiment: Cell-ELISA on intact cells. Conditions: mAb 5 μg/mL. In kind it is cell-based, human. The procedure: In a 96-well microplate, 15,000 cells/well were cultured overnight. The next day, unbound cells were washed off with sterile 1×PBS. The cells in each well were fixed with freshly prepared 4% buffered paraformaldehyde (pH 7.2) for 1 hour, followed by 3 washes with 1×PBS. The wells were then blocked with 5% BSA in PBS (100 μl/well) for 2 hours at room temperature. Microplate wells were then washed 5 times with 300 μl of ice cold 1×PBS. Monoclonal antibodies NMC-H103 (VH4/VK3) or NMC-C303 at 5 μg/mL in 1% BSA/PBS were then incubated with various cancer cells for 2 hours at room temperature. Wells were then washed with 300 μl of ice-cold 1×PBS for 5 times and corresponding secondary antibody HRP-GaH F(ab′)2 diluted 1:2000 or 1:4000 in PBS with 1% BSA were added at 100 μl/well for 1 hour at room temperature followed by washing 5 times with 300 μl of ice-cold 1×PBS. TMB Substrate Solution (1-Step™ Ultra TMB-ELISA, ThermoFisher, Cat. No. 34028) was then added at 50 μL to each microplate well and incubated at room temperature for 30 minutes. The reaction was stopped by addition of 50 μL of stop solution (ThermoFisher, Cat. No. SS04) to each well and absorbance of each well was measured at OD450 nm. The absorbance value of each experimental well was corrected for the absorbance value obtained from wells treated with isotype-identical mAbs included in each experiment.
For orientation: ELISA stands for enzyme-linked immunosorbent assay.

Experiment [3] deals with human lung cancer A549 cells. The experiment in a line: A549 tumors in NSG mice with or without Hu-PBMCs. In kind it is in vivo. Conditions: 1 i.p. dose 10 mg/kg, n=4. The procedure: Subcutaneous tumors were prepared by implanting either mouse colon MC-38 cells (5×10^5 cells/mouse), human lung cancer A549 cells (5×10^6 cells/mouse) or mouse lung cancer M109 cells (0.5×10^5 cells/mouse) in the right flanks of NOD scid gamma mice (NSG: NOD.Cg-Prkdc^scidIl2rg^tm1Wjl/SzJ) purchased from Jacksons Laboratory. From day 7 after tumor implantation, the tumor volumes were measured 2 times/week with a digital caliper. In the case of mouse colon MC-38 cells and human lung cancer A549 cells study in NSG mice, once tumors reached an average volume of 300-400 mm^3, mice were randomly divided into 3 groups (n=4) and 7×10^6 human PBMCs (Stem Cell Technologies Cat #70025) was injected into the tail vein of mice in groups 1 and 3. Seven days later, in the case of mouse colon MC-38 cells study, mAb NMC-C303 antibody (10 mg/kg) was injected intraperitoneally (i.p.) to mice in groups 2 and 3 and human isotype control antibody (BioXCell BP02) into mice in group 1 on days 33 and 35 post tumor inoculation. In the case of human lung cancer A549 cells study, seven days post PBMC injection, mice in group 2 and 3 received 1 intraperitoneal injection of mAb NMC-H103 (VH4/VK3) (10 mg/kg) while mice in group 1 received 1 injection of human isotype control antibody (BioXCell BP02) and tumors were measure 5 days later. […]

In experiment [4] the target is NMC-P3 peptide (SEQ ID NO:3), amino acids 475-491 of HDM2 (Homo sapiens, UniProt Q00987). The experiment in a line: Peptide-ELISA. In kind it is binding. The note with it: 5 μg/ml peptide on plate, OD 450 nm. Here is the method: Peptide-ELISA Methodology: 5 μg/ml of NMC-P1, NMC-P2 or NMC-P3 peptide antigen was dried onto a 96-well ELISA plate overnight. Plates were then blocked with 5% BSA in 1× phosphate-buffered saline (PBS) (100 μl/well) for 2 hours at room temperature. Microplate wells were then washed 5 times with 300 μl of ice cold 1×PBS. Appropriate dilutions of monoclonal antibodies NMC-103, NMC-204 or NMC-303 in 1% bovine serum albumin (BSA) in PBS solution were then incubated with their corresponding peptides (NMC-P1, NMC-P2 or NMC-P3, respectively) at room temperature. After 2 hours, wells were washed 5 times with 300 μl ice-cold PBS/well and 100 μl secondary antibody (HRP-labeled Goat anti-Mouse F(ab′)2 H&L cross-adsorbed secondary antibody (HRP-GaM F(ab′)2), ThermoFisher, Cat. No. A24524) diluted 1:2500 to 1:5000 in PBS-1% BSA solution were added and the incubation continued at room temperature. After 1 hour, the wells were washed again 5 times with 200 μl of ice-cold PBS and 50 μL of the TMB Substrate Solution (1-Step™ Ultra TMB-ELISA, ThermoFisher, Cat. No. 34028) were added to each well and color was allowed to develop for 30 minutes at room temperature. The reaction was stopped by addition of 50 μL of stop solution (ThermoFisher, Cat. No. SS04) to each well and absorbance of each well was read immediately for optical density (OD) at 450 nm.

B1: NMC-H103 (VH4/VK3): humanized NMC-103 variant, human IgG1, VH4 (SEQ ID NO:299) and VK3 (SEQ ID NO:297) (antibody, V domains shown)
VH: EVQLVESGGGLVQPGPSLRLSCTTSGFTFTHYYMSWVRQAPGKGLEWLGFIRNKAKGYTAEYSASVKGRFTISRDNSKSTLYLQMNSLRAEDTAVYYCARDIGDNWGQGTLVTVSS
VL: DIVMTQTPLSSPVTLGQPASISCRSSKNLLHSNGITYLYWYLQKPGQSPQLLISRVSNLASGVPDRFSGSESGTDFTLKISRVEAEDVGVYFCAQLLELPYTFGGGTKVEIK
modifications: human IgG1 constant regions lacking entries; mAb NMC-H103.VH4Heavy Chain Variable Region; mAb NMC-H103.VK3Light Chain Variable Region
Regarding B1, in experiment [1] (7AAD negative), the “binding to live cells briefly treated with trypsin, flow cytometry” value is on record as “reduced”. For the same molecule, the “binding to live (7AAD negative) cells, flow cytometry” value in experiment [1] (antibody 1 μg/ml) is reported as “binding”. Moreover, the “binding to intact, un-permeabilized cells, cell-based ELISA” value in experiment [2] is “binding”. Also, the average tumor volume is given as 784 mm^3 in experiment [3] (NSG mice in presence of Hu-PBMCs) and 1367 mm^3 in experiment [3] (NSG mice in the absence of Hu-PBMCs).

B2: NMC-204: mouse monoclonal antibody of the IgG3 isotype that binds to NMC-P2 (SEQ ID NO:2); VH SEQ ID NO:38, VL SEQ ID NO:39 (antibody, V domains shown)
VH: EVQLQESGSVLVRPGASVKLSCKASGDTLSGSWMHWAMQRPGQGLEWIGEIHLNRGTTNYNEKFKGKATVTVDTSSSTAYVDLSSLTSEDSAVYYCARSPGFAYWGQGTLVTVSA
VL: GIVMTQAAPSVPVTPGESVSISCRSSKSLLHSNGNSYLYWFLQRPGQSPQLLIYRMSNLASGVPDRFSGSGSGTAFTLRITRVEAEDVGVYYCMQHLEYPFTFGSGTKLEIK
modifications: mAb NMC-204 Heavy Chain Variable Region; mAb NMC-204 Light Chain Variable Region
For B2, in experiment [4], the “binding to NMC-P3 peptide” value is given as “did not bind”.
